In patent publication US20240287172A1 (SCIRHOM, published 2024):

T1: human iRhom1, endogenously expressed (human, UniProt Q96CC6 1-855)
T1 construct: also called iRhom1 on RH-30 cells
T1 sequence: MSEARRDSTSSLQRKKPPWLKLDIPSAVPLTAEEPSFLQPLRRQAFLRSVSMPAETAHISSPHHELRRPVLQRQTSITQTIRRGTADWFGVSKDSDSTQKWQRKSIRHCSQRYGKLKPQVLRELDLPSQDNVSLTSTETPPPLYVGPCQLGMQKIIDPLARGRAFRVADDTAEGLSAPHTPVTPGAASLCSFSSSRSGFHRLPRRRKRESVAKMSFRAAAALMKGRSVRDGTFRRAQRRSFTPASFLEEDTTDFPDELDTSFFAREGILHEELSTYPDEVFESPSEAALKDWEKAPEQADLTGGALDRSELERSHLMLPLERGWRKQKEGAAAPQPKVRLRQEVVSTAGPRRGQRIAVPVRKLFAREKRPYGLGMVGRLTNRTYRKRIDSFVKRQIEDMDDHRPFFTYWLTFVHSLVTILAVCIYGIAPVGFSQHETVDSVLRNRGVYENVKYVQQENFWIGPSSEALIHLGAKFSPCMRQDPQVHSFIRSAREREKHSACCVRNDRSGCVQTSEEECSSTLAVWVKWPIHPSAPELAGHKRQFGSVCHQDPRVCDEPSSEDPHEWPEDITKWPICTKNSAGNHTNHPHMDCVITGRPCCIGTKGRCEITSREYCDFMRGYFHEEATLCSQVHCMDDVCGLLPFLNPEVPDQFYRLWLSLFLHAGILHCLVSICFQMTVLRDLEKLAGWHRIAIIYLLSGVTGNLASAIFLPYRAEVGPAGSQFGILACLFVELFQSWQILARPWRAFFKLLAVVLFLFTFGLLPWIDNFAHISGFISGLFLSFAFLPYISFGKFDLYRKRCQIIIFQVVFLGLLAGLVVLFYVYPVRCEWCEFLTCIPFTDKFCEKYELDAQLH


Target: T1, human iRhom1, endogenously expressed
Test: FACS, RH-30 cells; via representative antibody 16
Experimental: In this study, binding specificity analyses of the hybridoma supernatant leading to the antibody 16 of the invention as a representative example of antibodies 3, 16, 22 and 42 of the invention as well as of the antibody 16 of the invention as a representative example of antibodies 16, 22 and 42 of the invention in cell lines endogenously expressing iRhom2 were performed. The studies were conducted on RPMI-8226 cells, a human B lymphocytic cell line endogenously expressing iRhom2 but being endogenously negative for iRhom1, on THP-1 cells, a human monocytic cell line endogenously expressing both iRhom2 and iRhom1 and on RH-30 cells, a human […] cell line endogenously negative for iRhom2 but endogenously expressing iRhom1.
In brief, human RPMI-8226 cells (Deutsche Sammlung von Mikroorganismen und Zellkulturen, Germany), THP-1 cells (American Type Culture Collection, USA) and RH-30 cells (Deutsche Sammlung von Mikroorganismen und Zellkulturen, Germany) were harvested with 10 mM EDTA in PBS, washed and resuspended in FACS buffer (PBS, 3% FBS, 0.05% sodium azide), and seeded in Nunc U-bottom 96-well plates (Thermo Fisher Scientific, USA) at approximately 2×10⁵ cells per well. […] Finally, cells were resuspended in 150 μl per well of FACS buffer and analyzed using a BD Accuri™ C6 Plus flow cytometer (Becton Dickinson, Germany).

| Binder | binding result |
| --- | --- |
| antibody 22 (antibody, V domains shown, mouse IgG, kappa light chain; also called clone #22; purified antibody 22) VH: QVTLKESGPGILQPSQTLSLTCSFSGFSLSTFGMGVGWIRQPSGKGLEWLAHIWWDDEKYYNSALKSRLTISKATSKNQVFLKIANVDTADTATYYCARISNYGSNYWYFNVWGTGTTVTVSS VL: QVVLTQSPALMSASPGEKVTMTCSAGSSVSYMYWYQQKPGSSPRVLIYDTSNLASGVPARFTGSGSGTSYSLTISRMEAEDAATYYCQQWNSYPLTFGAGTKLELK | no binding (tested: 3 µg/ml) |
| antibody 42 (antibody, V domains shown, mouse IgG, kappa light chain; also called clone #42; purified antibody 42) VH: QVTLKESGPGILQPSQTLSLTCSLSGFSLSTFGRGVGWIRQPSGKGLEWLAHIWWDDEKYYNPALKSRLTISKDTSKNQVFLRIANVDTADTATYYCARIQNYGSNYWYFDVWGTGTTVTVSS VL: LIVLTQSPAIMSASPGEKVTMTCGATSRISYMFWYQQKPGSSPRVLIYDTSNLASGVPVRFSGSGSGTSYSLTISRVEAEDVATYYCQQWNSYPLTFGAGTKLELK | no binding (tested: 3 µg/ml) |
